Laboratory results: article PMC9458438
Where two headings read alike, the source gives them in different places.

Legend:
ParB-eGFP (Spo0J) [1] = biological target: T1, ParB-eGFP (Spo0J) (Bacillus subtilis, UniProt P26497 1-282); experiment: single-molecule colocalization with lambda DNA
T1 sequence: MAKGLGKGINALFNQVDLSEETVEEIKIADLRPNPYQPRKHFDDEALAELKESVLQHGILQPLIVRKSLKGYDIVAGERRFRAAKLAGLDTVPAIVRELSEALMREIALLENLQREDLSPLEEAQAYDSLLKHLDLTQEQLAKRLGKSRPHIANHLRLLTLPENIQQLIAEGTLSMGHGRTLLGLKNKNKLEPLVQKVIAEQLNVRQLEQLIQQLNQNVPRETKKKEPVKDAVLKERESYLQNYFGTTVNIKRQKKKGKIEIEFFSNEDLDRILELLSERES

ParB-eGFP (Spo0J) [2] = biological target: T1, ParB-eGFP (Spo0J); experiment: single-molecule colocalization with lambda DNA; remark: listed apart in the source

B1: ns-oligo-Cy5 (58 bp) (dsDNA)
DNA 1: CGAAGGCTACGTCCAGGAGCGCACCATCTTCTTCAAGGACGACGGCAACTACAAGACC
DNA 2: GGTCTTGTAGTTGCCGTCGTCCTTGAAGAAGATGGTGCGCTCCTGGACGTAGCCTTCG
binding signal (ParB-eGFP (Spo0J) [1]): ~2 fold shorter lifetime than parS-oligo
binding signal (ParB-eGFP (Spo0J) [2]): ~3 fold fewer multimer-oligo complexes than parS-oligo
